{
  "source": "patent US11427805B2",
  "about": "“Methods of producing human foregut endoderm cells expressing PDX1 from human definitive endoderm” (ViaCyte, Inc., priority 2005, dated 2022)",
  "type_in_all_cases": "cell-based, human",
  "key": {"hESCs [1]": {"tested_on": "hESCs", "experiment": "AFP antibody-labeled cell number by flow cytometry", "settings": "FIGS. 9A-B", "from_the_text": "As a further evidence of the specificity of the SOX17^hi/AFP^lo/TM^lo/SPARC^lo marker profile as predictive of definitive endoderm, SOX17 and AFP gene expression was quantitatively compared to the relative number of antibody labeled cells."}, "AFP gene expression": {"tested_on": "AFP gene expression", "experiment": "Q-PCR of AFP gene expression in differentiating hESCs", "experimental": "(§1) In the following experiments, real-time quantitative RT-PCR (Q-PCR) was the primary assay used for screening the effects of various treatments on hESC differentiation. In particular, real-time measurements of gene expression were analyzed for multiple marker genes at multiple time points by Q-PCR. Marker genes characteristic of the desired as well as undesired cell types were evaluated to gain a better understanding of the overall dynamics of the cellular populations. The strength of Q-PCR analysis includes its extreme sensitivity and relative ease of developing the necessary markers, as the genome sequence is readily available. Furthermore, the extremely high sensitivity of Q-PCR permits detection of gene expression from a relatively small number of cells within a much larger population. In addition, the ability to detect very low levels of gene expression provides indications for “differentiation bias” within the population. The bias towards a particular differentiation pathway, prior to the overt differentiation of those cellular phenotypes, is unrecognizable using immunocytochemical techniques. […] Additionally, Q-PCR provides a mechanism by which to evaluate the success of a differentiation protocol in a quantitative format at semi-high throughput scales of analysis.\nTo generate PCR template, total RNA was isolated using RNeasy (Qiagen) and quantitated using RiboGreen (Molecular Probes). Reverse transcription from 350-500 ng of total RNA was carried out using the iScript reverse transcriptase kit (BioRad), which contains a mix of oligo-dT and random primers. […] Fluorescence data was collected during the last 15 seconds of each extension phase. A three point, 10-fold dilution series was used to generate the standard curve for each run and cycle thresholds (Ct's) were converted to quantitative values based on this standard curve. The quantitated values for each sample were normalized to housekeeping gene performance and then average and standard deviations were calculated for triplicate samples. […]"}, "hESCs [2]": {"tested_on": "hESCs", "experiment": "Antibody labeling (immunocytochemistry) of differentiating hESCs for SOX17 and AFP", "from_the_text": "However, AFP and SOX7 are not expressed in definitive endoderm cells at levels detectable by ICC, and thus, they can be employed as negative markers for bonifide definitive endoderm cells. It was shown that SOX17 antibody labels populations of cells that exist as discrete groupings of cells or are intermingled with AFP positive cells. […] Similarly, since parietal endoderm has been reported to express SOX17, antibody co-labeling with SOX17 together with the parietal markers SPARC and/or Thrombomodulin (TM) can be used to identify the SOX17^+ cells that are parietal endoderm. As shown in FIGS. 6A-C, Thrombomodulin and SOX17 co-labeled parietal endoderm cells were produced by random differentiation of hES cells.\nWith the SOX17 antibody and Q-PCR tools described above we have explored a number of procedures capable of efficiently programming hESCs to become SOX17^hi/AFP^lo/SPARC/TM^lo definitive endoderm cells. We applied a variety of differentiation protocols aimed at increasing the number and proliferative capacity of these cells as measured at the population level by Q-PCR for SOX17 gene expression and at the level of individual cells by antibody labeling of SOX17 protein.\nTo determine the effect of TGFβ factor treatment at the individual cell level, a time course of TGFβ factor addition was examined using SOX17 antibody labeling. […]"}, "SOX17 gene expression": {"tested_on": "SOX17 gene expression", "experiment": "Q-PCR of SOX17 gene expression in differentiating hESCs", "experimental": "as §1\nThe approach taken here was to perform relative quantitation using SYBR Green chemistry on a Rotor Gene 3000 instrument (Corbett Research) and a two-step RT-PCR format. Such an approach allowed for the banking of cDNA samples for analysis of additional marker genes in the future, thus avoiding variability in the reverse transcription efficiency between samples.\nTo generate PCR template, total RNA was isolated using RNeasy (Qiagen) and quantitated using RiboGreen (Molecular Probes). Reverse transcription from 350-500 ng of total RNA was carried out using the iScript reverse transcriptase kit (BioRad), which contains a mix of oligo-dT and random primers. Each 20 μL reaction was subsequently diluted up to 100 μL total volume and 3 μL was used in each 10 μL Q-PCR reaction containing 400 nM forward and reverse primers and 5 μL 2×SYBR Green master mix (Qiagen). Two step cycling parameters were used employing a 5 second denature at 85-94° C. (specifically selected according to the melting temp of the amplicon for each primer set) followed by a 45 second anneal/extend at 60° C. Fluorescence data was collected during the last 15 seconds of each extension phase. A three point, 10-fold dilution series was used to generate the standard curve for each run and cycle thresholds (Ct's) were converted to quantitative values based on this standard curve. The quantitated values for each sample were normalized to housekeeping gene performance and then average and standard deviations were calculated for triplicate samples. At the conclusion of PCR cycling, a melt curve analysis was performed to ascertain the specificity of the reaction. A single specific product was indicated by a single peak at the Tm appropriate for that PCR amplicon.\nA first step in establishing the Q-PCR methodology was validation of appropriate housekeeping genes (HGs) in the experimental system. […] We measured the expression levels of Cyclophilin G, hypoxanthine phosphoribosyltransferase 1 (HPRT), beta-2-microglobulin, hydroxymethylbiane synthase (HMBS), TATA-binding protein (TBP), and glucoronidase beta (GUS) in differentiating hESCs. […] We routinely used both Cyclophilin G and GUS to calculate a normalization factor for all samples. The use of multiple HGs simultaneously reduces the variability inherent to the normalization process and increases the reliability of the relative gene expression values.\nWe were the first to analyze and describe the effect of TGFβ family growth factors, such as Nodal/activin/BMP, for use in creating definitive endoderm cells from embryonic stem cells in in vitro cell cultures. […]"}},
  "data": [
    {"molecule": "activin A (protein, UniProt P08476 311-426, looked up, Inhibin beta A chain) Inhibin beta A chain: GLECDGKVNICCKKQFFVSFKDIGWNDWIIAPSGYHANYCEGECPSHIAGTSGSSLSFHSTVINHYRMRGHSPFANLKSCCVPTKLRPMSMLYYDDGQNIIKKDIQNMIVEECGCS", "values": [
      {"measurement": "decrease in AFP antibody-labeled cell number as measured by flow cytometry", "setting": "hESCs [1]", "result": "approximately 7 fold"},
      {"measurement": "suppression of AFP gene expression in comparison to no treatment", "setting": "AFP gene expression; FIG. 8A", "result": 6.8, "unit": "fold"},
      {"measurement": "difference in AFP gene expression levels, activin A vs random differentiation in 10% FBS", "setting": "AFP gene expression; FIG. 8A legend", "result": "approximately 7 fold"},
      {"measurement": "expression of the visceral endoderm marker AFP", "setting": "AFP gene expression; activin A dose series (FIG. 13A)", "result": "dose-dependent decrease"},
      {"measurement": "dose dependence of SOX17+ cell number", "setting": "hESCs [2]; FIG. 22", "result": "dose-dependent increase"},
      {"measurement": "difference in SOX17 antibody-labeled cell number", "setting": "hESCs [2]; hESCs treated with activin A vs retinoic acid (FIG. 7B)", "result": 10, "unit": "fold"},
      {"measurement": "dose dependence of SOX17 gene expression", "setting": "SOX17 gene expression; 0, 10, 30 or 100 ng/ml (FIG. 11)", "result": "dose-dependently increases SOX17 gene expression"},
      {"measurement": "SOX17 induction compared to no factor medium controls", "setting": "SOX17 gene expression; 4-day time point", "result": 5, "unit": "fold"},
      {"measurement": "SOX17 gene expression relative to the undifferentiated control media (SR20)", "setting": "SOX17 gene expression; FIG. 7A", "result": "increases SOX17 gene expression"},
      {"measurement": "induction of SOX17 gene expression vs. undifferentiated hESCs", "setting": "SOX17 gene expression; day 4 of differentiation / four days of exposure, activin A at 100 ng/ml, 10% serum medium (FIGS. 19, 21)", "result": 19, "unit": "fold"},
      {"measurement": "difference in the level of SOX17 mRNA expression", "setting": "SOX17 gene expression; hESCs treated with activin A vs retinoic acid (FIG. 7A)", "result": 10, "unit": "fold"}
    ]}
  ]
}
